Values belong to the binder of their own block, whether it stands above or below them.
Assays:
[1] = substrate: CC(=O)SCCNC(=O)CCNC(=O)[C@H](O)C(C)(C)COP(=O)(O)OP(=O)(O)OC[C@H]1O[C@@H](n2cnc3c(N)ncnc32)[C@H](O)[C@@H]1OP(=O)(O)O; test: purified protein; type: biochemical, Arabidopsis thaliana; settings: acetyl-CoA 0-500 µM, 150 mM K-phosphate pH 8.0, 50 mM NaCl, 30 °C
[2] = target: His6-GNAT2 (Arabidopsis thaliana) (UniProt Q7X9V3)
[3] = target: His6-GNAT2 (Arabidopsis thaliana) (UniProt Q7X9V3); remark: listed apart in the source
[4] = co-substrate Nα-Val peptide V-A-Q-G-A-K(ac)-A-A-K(Dnp)-Ahx-r-r-r 100 µM
[5] = co-substrate Nα-Ala peptide A-A-Q-G-A-K(ac)-A-A-K(Dnp)-Ahx-r-r-r 100 µM

B1: His6-GNAT2 (Arabidopsis thaliana) (protein)
chain: SGFVKNNNSTQLVEPPSIVNDEEEETEPLLPVEFTLVERNLEDGLVEEIIFSSGGEIDVYDLQGLCDKVGWPRRPLVKLAAALKNSYMVATLHSVMKSSSDSDSSEGGDGEKQQEKKLIGMARATSDHAFNATIWDVLVDPEYQGQGLGKALVEKLVRALLQRDIGNISLFADSQVVDFYQNLGFEADPEGIKGMFWYPK
notes: expressed in E. coli, purified
Km [1, 4]: 23.44 ± 0.32 µM | kcat [1, 4]: 0.02335 ± 5e-05 s⁻¹

acetylation of the Nα-Ala peptide in the presence of both GNATs, turnover as percent of the hypothetical sum of both individual activities [2]: 53% | acetylation of the Nα-Met peptide by His6-GNAT1 + His6-GNAT2 (1 + 1 μM), effective activity as percent of the hypothetical sum of the single activities [3]: 55% | acetylation of the Nα-Thr peptide by His6-GNAT1 + His6-GNAT2 (1 + 1 μM), effective activity as percent of the hypothetical sum of the single activities [3]: 73% | acetylation of the Nα-Val peptide by His6-GNAT1 + His6-GNAT2 (1 + 1 μM), effective activity as percent of the hypothetical sum of the single activities [3]: 76% | acetylation rate of the Nα-Ala peptide by His6-GNAT1 + His6-GNAT2 (1 + 1 μM), against around 450 nmol ∙ min^-1 expected for additive activity [3]: 250 nmol/min | lysine acetylation of the Nε-Lys peptide by His6-GNAT1 + His6-GNAT2 (1 + 1 μM), effective activity as percent of the hypothetical sum of the single activities [3]: 93%
B2: His6-GNAT1 (enzyme)
chain: AAMQRKPPSYSISDEDLESRGFLLRRTTEGLNLDQLNSVFAAVGFPRRDTAKIEVALQHTDALLWVEYEKTRRPVAFARATGDGVFNAIIWDVVVDPSFQSCGLGKAVMERLIEDLQVKGICNIALYSEPRVLGFYRPLGFVSDPDGIKGMVFIRKQRNKK

B3: His6-GNAT1 (Arabidopsis thaliana) (protein)
chain: AAMQRKPPSYSISDEDLESRGFLLRRTTEGLNLDQLNSVFAAVGFPRRDTAKIEVALQHTDALLWVEYEKTRRPVAFARATGDGVFNAIIWDVVVDPSFQSCGLGKAVMERLIEDLQVKGICNIALYSEPRVLGFYRPLGFVSDPDGIKGMVFIRKQRNKK
notes: N-terminal His6 (pQE-30), predicted plastid transit peptide (36 N-terminal residues) removed; expressed in E. coli SoluBL21, Ni-NTA
Km [1, 5]: 137.6 ± 9.8 µM | kcat [1, 5]: 0.00858 ± 0.00025 s⁻¹
